To fix the notation:
B4: Cdc42Δ7Q61L (domain or fragment)
chain: not shown
notes: Human Cdc42 with seven residues deleted from the C terminus and the mutation Q61L; cloned into pGEX-2T; Loaded with [3H]GTP for SPA and with GMPPNP for NMR; 15N- or 15N/13C-labelled in some NMR experiments; also called truncated Cdc42; Cdc42Δ7Q61L·[3H]GTP; source: E. coli BL21, purified (glutathione-agarose, thrombin cleavage, gel filtration)

Details in all cases: both partners purified
One assay deals with T1, full-length Cdc42Q61L (human, UniProt P60953 1-191, Q61L).
T1 construct: Human Cdc42, full length, Q61L; cloned into pGEX-6P-1; confirmed as full-length by mass spectrometry; Loaded with [3H]GTP for SPA; also called Cdc42FLQ61L; full-length [3H]GTP·Cdc42; source: E. coli BL21, purified (glutathione-agarose, 3C protease cleavage, gel filtration)
T1 sequence (P60953 whole entry Q61L): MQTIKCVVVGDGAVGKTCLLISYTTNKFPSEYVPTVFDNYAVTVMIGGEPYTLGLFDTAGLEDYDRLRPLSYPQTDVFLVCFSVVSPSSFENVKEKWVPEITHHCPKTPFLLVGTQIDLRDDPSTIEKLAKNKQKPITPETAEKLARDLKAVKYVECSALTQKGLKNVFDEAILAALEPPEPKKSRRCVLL
In words: scintillation proximity assay; competition; free effector domain titrated into 30 nM Cdc42·[3H]GTP and 30 nM GST-ACK (in Fig. 7B GST-ACK or GST-WASP GBD) immobilised on a fluoromicrosphere; Kd from competition binding isotherms. For orientation: Scintillation proximity formats need no separation of bound from free tracer.

The target in assay [1] is B4. Nature of the assay: scintillation proximity assay; direct binding; 30 nM GST-PAK, GST-ACK or His-tagged TOCA1 construct attached to a fluoromicrosphere via an anti-GST or anti-His antibody; Cdc42·[3H]GTP at increasing concentrations; apparent Kd from a direct binding isotherm.
The target of assay [2] is B4. In words: scintillation proximity assay; competition; free effector domain titrated into 30 nM Cdc42·[3H]GTP and 30 nM GST-ACK (in Fig. 7B GST-ACK or GST-WASP GBD) immobilised on a fluoromicrosphere; Kd from competition binding isotherms.
The target in assay [3] is T2, TOCA1 HR1-SH3 (residues 330–545) (Xenopus tropicalis, UniProt Q6GUF4 330-545).
T2 construct: Xenopus tropicalis TOCA1, C-terminally extended HR1 construct, residues 330-545, in pMAT10-P; also called HR1-SH3 protein; TOCA1 330–545; source: E. coli, purified (Ni-NTA, 3C protease cleavage, gel filtration); not shown: His, N-terminal, cleaved; MBP, N-terminal, cleaved
T2 sequence (looked up): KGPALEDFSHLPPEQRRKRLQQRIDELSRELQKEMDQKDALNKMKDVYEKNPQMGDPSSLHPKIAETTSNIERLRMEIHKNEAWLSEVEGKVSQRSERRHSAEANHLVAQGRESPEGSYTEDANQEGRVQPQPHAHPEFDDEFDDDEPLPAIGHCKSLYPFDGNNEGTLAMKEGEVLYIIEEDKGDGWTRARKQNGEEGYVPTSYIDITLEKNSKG
The description is as above.

Sequence of Cdc42Δ7Q61L (P60953 1-184 Q61L): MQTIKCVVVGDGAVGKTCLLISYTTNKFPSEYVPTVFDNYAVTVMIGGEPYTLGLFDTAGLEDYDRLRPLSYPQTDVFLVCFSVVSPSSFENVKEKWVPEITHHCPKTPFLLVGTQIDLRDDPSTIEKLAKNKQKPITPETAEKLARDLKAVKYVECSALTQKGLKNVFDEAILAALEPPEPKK

B1: CIP4 HR1 domain (residues 388–481) (domain or fragment, human, UniProt Q15642 388-481, looked up)
chain: TEDFSHLPPEQQRKRLQQQLEERSRELQKEVDQREALKKMKDVYEKTPQMGDPASLEPQIAETLSNIERLKLEVQKYEAWLAEAESRVLSNRGD
notes: also called HR1^CIP4; source: E. coli BL21, purified (glutathione-agarose, 3C protease cleavage, gel filtration); not shown: GST, N-terminal, cleaved
B1 gave a Kd with full-length Cdc42Q61L of 5 µM.

B2: TOCA1 HR1 domain (residues 330–426) with C-terminal His6 tag (domain or fragment, Xenopus tropicalis, UniProt Q6GUF4 330-426, looked up)
chain: KGPALEDFSHLPPEQRRKRLQQRIDELSRELQKEMDQKDALNKMKDVYEKNPQMGDPSSLHPKIAETTSNIERLRMEIHKNEAWLSEVEGKVSQRSE
notes: Xenopus tropicalis TOCA1 HR1 domain, residues 330-426, from cDNA NM_001005148, in pGEX-HisP; also called HR1-His6; C-terminally His-tagged TOCA1 HR1 domain construct; source: E. coli BL21, purified (glutathione-agarose, 3C protease cleavage, gel filtration); not shown: GST, N-terminal, cleaved; His6, C-terminal, kept
With B2, the Kd in the assay with Cdc42Δ7Q61L [1] is over 1 µM.

B3: TOCA1 HR1 domain (residues 330–426), untagged (domain or fragment, Xenopus tropicalis, UniProt Q6GUF4 330-426, looked up)
chain: KGPALEDFSHLPPEQRRKRLQQRIDELSRELQKEMDQKDALNKMKDVYEKNPQMGDPSSLHPKIAETTSNIERLRMEIHKNEAWLSEVEGKVSQRSE
notes: Xenopus tropicalis TOCA1 (transducer of Cdc42-dependent actin assembly protein 1) HR1 domain, residues 330-426, from cDNA NM_001005148, in pGEX-6P-1; 15N- or 13C/15N-labelled in some NMR experiments; also called HR1^TOCA1; TOCA HR1 domain; source: E. coli BL21, purified (glutathione-agarose, 3C protease cleavage, gel filtration); not shown: GST, N-terminal, cleaved
Regarding B3, the figures for the Kd with Cdc42Δ7Q61L [2] and with full-length Cdc42Q61L were 6.05 µM and 5.39 µM, respectively.
Regarding B4, the Kd in assay [3] came to 4.6 µM.

B5: N-WASP G protein-binding domain (GBD) (residues 197–255) (domain or fragment, Xenopus tropicalis, UniProt Q6NX29 197-255, looked up)
chain: KKKLTKADIGTPSNFQHIGHVGWDPNTGFDVNNLDPELKKLFDLCGISEAQLKDKETSK
notes: also called N-WASP GBD; N-WASP CRIB domain; source: E. coli BL21-CodonPlus-RIL, purified (glutathione-agarose, 3C protease cleavage, gel filtration); not shown: GST, N-terminal, cleaved
In the assay with Cdc42Δ7Q61L [2], B5 yielded a Kd of 0.037 µM.

B6: FBP17 HR1 domain (residues 385–486) (domain or fragment, Xenopus laevis, UniProt Q6GNV5 385-486, looked up)
chain: LKRGGSTPEDFSNLPPEQRRKKLQQKVDELNKDIQKEIDQRDALTKMRDVYTKNPQMGDAASVGQKLVEIGNNIEKLRVEVQKFEGWLAEVEGRLSARNDSS
notes: Xenopus laevis FBP17 HR1 domain, residues 385-486, from IMAGE clone 5514481, in pGEX-6P-1; also called HR1^FBP17; source: E. coli BL21, purified (glutathione-agarose, 3C protease cleavage, gel filtration); not shown: GST, N-terminal, cleaved
In the assay with full-length Cdc42Q61L, B6 returned a Kd of 10 µM.

These data come from paper PMC4919469, “Investigation of the Interaction between Cdc42 and Its Effector TOCA1” (The Journal of Biological Chemistry, 2016).
